The target in this test is N-terminally GFP-tagged mouse ClC-3c (mouse). The test can be described thus: FRET or BRET; FLIM-FRET (phasor analysis of the donor lifetime) in living SH-SY5Y cells transfected with the IRES construct; GFP on ClC-3 as donor, mCherry on ClC-4 as acceptor; regions of interest at the plasma membrane or intracellular areas of intermediate fluorescence; tauD from cells expressing only the donor.
Sequence of N-terminally GFP-tagged mouse ClC-3c (mouse) (P51791 whole entry): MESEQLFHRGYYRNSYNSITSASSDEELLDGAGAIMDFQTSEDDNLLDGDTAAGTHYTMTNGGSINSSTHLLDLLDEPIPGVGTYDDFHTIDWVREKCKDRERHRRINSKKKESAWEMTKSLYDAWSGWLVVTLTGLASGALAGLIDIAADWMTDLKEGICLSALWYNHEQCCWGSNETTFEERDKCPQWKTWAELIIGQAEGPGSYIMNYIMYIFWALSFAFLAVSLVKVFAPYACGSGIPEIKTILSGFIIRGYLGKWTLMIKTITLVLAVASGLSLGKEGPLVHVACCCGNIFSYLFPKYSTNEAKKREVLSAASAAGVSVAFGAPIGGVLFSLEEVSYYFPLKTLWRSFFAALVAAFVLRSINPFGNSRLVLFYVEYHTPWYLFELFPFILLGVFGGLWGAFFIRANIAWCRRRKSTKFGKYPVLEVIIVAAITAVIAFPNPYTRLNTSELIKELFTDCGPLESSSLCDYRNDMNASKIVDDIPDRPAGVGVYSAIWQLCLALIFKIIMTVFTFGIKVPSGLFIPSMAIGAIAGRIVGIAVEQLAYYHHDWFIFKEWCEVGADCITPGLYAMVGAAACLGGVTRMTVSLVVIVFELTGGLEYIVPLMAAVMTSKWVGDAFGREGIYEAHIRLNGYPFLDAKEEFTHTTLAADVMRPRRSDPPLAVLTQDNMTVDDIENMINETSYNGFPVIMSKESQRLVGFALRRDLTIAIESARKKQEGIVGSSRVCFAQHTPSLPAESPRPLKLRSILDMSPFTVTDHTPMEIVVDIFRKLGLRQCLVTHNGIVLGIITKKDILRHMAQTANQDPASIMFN

Turning to “N-terminally mCherry-tagged human ClC-4 (from UniProt P51793 1-760) (natural protein)”, the donor fluorescence lifetime in the presence of the acceptor (τDA; unquenched donor τD = 2.22ns) is 1.89 ns.

The record behind these values is paper PMC12731782.
